Numbering of substitutions follows the chain as printed. Names may count otherwise.
T1: 6×His-Thioredoxin-fused CP190 1–126 (BTB domain) (Drosophila melanogaster), Q24478
T1 chain: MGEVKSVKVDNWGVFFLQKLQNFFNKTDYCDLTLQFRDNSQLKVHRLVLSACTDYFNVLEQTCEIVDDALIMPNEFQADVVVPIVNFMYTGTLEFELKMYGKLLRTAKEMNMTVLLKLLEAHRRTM

B1: 6×His-Thioredoxin-fused CP190 1–126 L118A (domain or fragment, Drosophila melanogaster, UniProt Q24478 1-126, looked up)
chain: T1 chain with L118A
notes: CP190, Drosophila melanogaster, residues 1–126 (BTB domain); also called BTB^L118A; source: E. coli BL21, co-expressed with the GST fusion, in lysate (pull-down); bacterial expression (cross-linking)
B2: 6×His-Thioredoxin-fused CP190 1–126 K117S (domain or fragment, Drosophila melanogaster, UniProt Q24478 1-126, looked up)
chain: T1 chain with K117S
notes: CP190, Drosophila melanogaster, residues 1–126 (BTB domain); source: E. coli BL21, co-expressed with the GST fusion, in lysate (pull-down); bacterial expression (cross-linking)
B3: 6×His-Thioredoxin-fused CP190 1–126 V7A (domain or fragment, Drosophila melanogaster, UniProt Q24478 1-126, looked up)
chain: T1 chain with V7A
notes: CP190, Drosophila melanogaster, residues 1–126 (BTB domain); also called BTB^V7A; source: E. coli BL21, co-expressed with the GST fusion, in lysate (pull-down); bacterial expression (cross-linking)
B4: 6×His-Thioredoxin-fused CP190 1–126 F15A (domain or fragment, Drosophila melanogaster, UniProt Q24478 1-126, looked up)
chain: T1 chain with F15A
notes: as for B2
B5: 6×His-Thioredoxin-fused CP190 1–126 V114A (domain or fragment, Drosophila melanogaster, UniProt Q24478 1-126, looked up)
chain: T1 chain with V114A
notes: as for B2
B6: 6×His-Thioredoxin-fused CP190 1–126 K19A (domain or fragment, Drosophila melanogaster, UniProt Q24478 1-126, looked up)
chain: T1 chain with K19A
notes: as for B2
B7: 6×His-Thioredoxin-fused CP190 1–126 V114N (domain or fragment, Drosophila melanogaster, UniProt Q24478 1-126, looked up)
chain: T1 chain with V114N
notes: as for B2
B8: 6×His-Thioredoxin-fused CP190 1–126 (BTB domain), Q24478 1-126 (domain or fragment)
chain: T1 chain

Molecular target: the molecule itself
Test: cross-linking; glutaraldehyde, thioredoxin-fused BTB domains at 5 μM, 10 min at room temperature, 20 mM HEPES pH 7.7, 150 mM NaCl, 20 mM imidazole, 1 mM β-mercaptoethanol; SDS-PAGE, silver staining
Conditions: not given

Stoichiometry N, 2:
B1
B2
B3
B4
B5
B6
B7

Molecular target: T1, 6×His-Thioredoxin-fused CP190 1–126 …
Test: as above
Conditions: remark: other sources report otherwise

Stoichiometry N, 2:
B8

— PMC8618245, “Mechanisms of CP190 Interaction with Architectural Proteins in Drosophila Melanogaster” (International Journal of Molecular Sciences, 2021)
